Test results: article PMC13044992

Columns and labels:
[1] = target: S100i2 from Danio rerio (wild type) (Danio rerio) (UniProt A3FKT8); assay: crystal structure; sitting-drop vapor diffusion at 291 K, 10 mg/mL protein; apo S100i1 (0.2 M Li sulfate, Tris-HCl pH 8.5, 25% PEG 4000), Na+-S100i1 (0.2 M Na acetate, Tris-HCl pH 9.5, 35% PEG 4000), Mg2+-S100i2 (0.2 M MgCl2, Tris-HCl pH 8.5, 30% PEG 4000)
[2] = target: S100i2 from Danio rerio (wild type) (Danio rerio) (UniProt A3FKT8); assay: SEC; 24 mL Superdex 75 Increase 10/300 GL, 20 mM Tris-HCl pH 7.5, 100 mM NaCl; self-association (homodimer)
[3] = target: S100i1 from Danio rerio (wild type) (Danio rerio) (UniProt Q6XG62); assay: crystal structure; sitting-drop vapor diffusion at 291 K, 10 mg/mL protein; apo S100i1 (0.2 M Li sulfate, Tris-HCl pH 8.5, 25% PEG 4000), Na+-S100i1 (0.2 M Na acetate, Tris-HCl pH 9.5, 35% PEG 4000), Mg2+-S100i2 (0.2 M MgCl2, Tris-HCl pH 8.5, 30% PEG 4000)
[4] = target: S100i1 from Danio rerio (wild type) (Danio rerio) (UniProt Q6XG62); assay: SEC; 24 mL Superdex 75 Increase 10/300 GL, 20 mM Tris-HCl pH 7.5, 100 mM NaCl; self-association (homodimer)

Substance | stoichiometry N [1] | stoichiometry N [2] | stoichiometry N [3] | stoichiometry N [4]
S100i2 from Danio rerio (wild type) (from UniProt A3FKT8 1-97) (natural protein) | 2 | 2 |  | 
S100i1 from Danio rerio (wild type) (from UniProt Q6XG62 1-95) (natural protein) |  |  | 2 | 2
